According to the nanobody polyreactivity screen of Harvey et al. (2022):

Assay: yeast display, Sf9 membrane polyspecificity reagent, FACS + sequencing; frameworks hold sequencing errors
Summary of the method: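 In a synthetic yeast display library (Saccharomyces cerevisiae BJ5465), nanobody expression was induced with galactose for 36–48 hours. FACS gates were set low and high (top ~1%) using anti-HA fluorescence for expression and streptavidin fluorescence for binding of the Sf9 membrane reagent. Each polyreactivity label is drawn from the gate of origin.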

Q: Which “polyreactivity (PSR sort gate)” value does the source give for “QLQLVESGGGLVQAGGSLRLSCAASGSTFALYAMGWYRQAPGKERELVAAITSDGSTKYADSVKGRFTISRDNAKNTVYLQMNSLKPEDTAVYYCNTEYYYPGIPYDYWGQGTQVTVSS” here?
A: high polyreactivity

Q: Which “polyreactivity (PSR sort gate)” value does the source give for “QVQLVESGGGLVQAGGRLRLSCAASGRIFWTYAMGWYRQAPGKERELVAAISSGGSTNYADSVKGRFTISRDNAKNTVYLQMNSLKPEDTAVYYCAADRWYREYDYWGQGTQVTVSS” here?
A: low polyreactivity

Q: Which “polyreactivity (PSR sort gate)” value does the source give for “QDQHVESGGGLVQAGGSLRLSCAASGGIFQSYTMGRYRQAPGKEREFVAAITYSGGSTHYADSVKGRFTISRDKAKNTVYLQMNSLKPEDTAVYYCNADRYYGRGYGYWGQGTQVTVSS” here?
A: low polyreactivity

Q: With “QLQLVESGGGLVQAGGSLRISCAASGSTFGRNAMGWYRQAPGKERELVAVISKSGGSTYYADSVKGRFTISRDNAKNTVYLQMNSLKPEDTAVYYCAARYYSYWREYQHFDYWGQGTQVTVSS” as the sequence, how does the “polyreactivity (PSR sort gate)” value read?
A: high polyreactivity

Q: For “QVQLVESGGGLVQAGGSLRLSSAASGSTFHLYAMGWYRQAPGKEREFVAAIRGRGGNTYADSVKGRFTISRDNAKNTVYLQMNSLKPEDTAVYYCAAPLLRDLRSPYSYNYWGQGTQVTVSS”, which “polyreactivity (PSR sort gate)” value is on record?
A: low polyreactivity

Q: For “QVQLVESGGGLVQAGGSLRLSCAASRSTFYAYALGCYRQAPGKERELVAAIDSGGSTYYADSVKGRFTISRDNAKNTVYLQMNSLKPEDTAVYYCAVRHRYTRAYWGRDYWGQGTQVTVSS”, which “polyreactivity (PSR sort gate)” value is on record?
A: low polyreactivity

Q: With “QVQLVESGGGLVQAGGSLRLSCAASGFIFDYYMGWYRQAPGKERELVARISYTGGSTYYADSVKGRFTISRDNAKNTVYLQMNSLNPEDTAVYYCATRGAEAERFASYDFDYWGQGTQVTVSS” as the sequence, how does the “polyreactivity (PSR sort gate)” value read?
A: low polyreactivity

Q: With “QVQLVESGGGLVQAGGSLRLSCAASGLIFANYAMGWYRQAPGKERELVAAITWSGGTTYYADSVKGRFTISRDNAKNTVYLQMNSLKPEDTAVYYCAAEVPYYQAAEYDYWGQGTQVTVSS” as the sequence, how does the “polyreactivity (PSR sort gate)” value read?
A: low polyreactivity

Q: For “QVQLVESGGGLVQAGGSLRLSCAASGSTLSGYVMGWYRQAPGKERELVAGISQSGASTYYADSVKGRFTISRDNAKNTVYLQMNSLKPEDTAVYYCAAVARYLLKYRRYGYWGQGTQVTVSS”, which “polyreactivity (PSR sort gate)” value is on record?
A: high polyreactivity

Q: For “QVQLVESGGGLVQAGGSLRLSCAASGIFRLNAMGWYRQAPGKERELVAAISWSGGSTRYADSVKGRFTISRDNAKNTVYLQMNSLKPEDTAVYYCAKKLRGWHTIITDYDYWGLGTQVTVSS”, which “polyreactivity (PSR sort gate)” value is on record?
A: low polyreactivity

Q: For “QVQLVESGGGLVQAGGSLRLSCAASGRILKRNAMGWYRQAPGKERELVAAISWSTGTTYYADSVKGRFTISRDNAKNTVYLQMNSLKPEDTAVYYCAKQIVSGRRVDRNDYWGQGTQVTVSS”, which “polyreactivity (PSR sort gate)” value is on record?
A: low polyreactivity

Q: With “QVQLVESGGGLVQAGGSLRLSCAASGRIFKYYAMGWYRQAPGKNRELVATISVSGANTYYADSVKGRFTISRDNAKNPVYLQMNSLKREDTAVYFCAAGYAGVSHITRTSRKSHYGYWGQGTQVTVSS” as the sequence, how does the “polyreactivity (PSR sort gate)” value read?
A: high polyreactivity

Q: With “QVQLVESGGGLVQAGGSLRLSCAASGRTIRWYAMGWYRPARGKERELVAVISRGGGSTTYADSVKGRFTISRDNAKNTVYLQMNSLKPEDTAVYYCAAYWGRTGYYGYDYYYWGQGTQVTVSS” as the sequence, how does the “polyreactivity (PSR sort gate)” value read?
A: high polyreactivity

Q: For “QVQLVETGGGLVQAGGSLRLSCAASGRIFLKYAMGWYRQAPGKERELVAAISRRGASTYYADSVKGRFTISRDNAKNTVYLQMNSLKPEDTAVYYCNARTSSGMDYWGQGTQVTVSS”, which “polyreactivity (PSR sort gate)” value is on record?
A: high polyreactivity

Q: For “QVQLQESGGGLVQASGSLRLSCAASGNIFPDYVMGWYRLAPGKEREFVANITGGSTTNYADSVKGRFTIIRDNAKNTVYLQMNSLKAEDTAVYYCAVNFGTVVLYLYWGQGTQVTVSS”, which “polyreactivity (PSR sort gate)” value is on record?
A: high polyreactivity

Q: Which “polyreactivity (PSR sort gate)” value does the source give for “QLQLEESAGGLVQAGGSLRLSCAASGLTFPSYVMGRYRPAPGKEREFVAASTGSAGSTYYADSVKGRLTISRDNAKNTVYLQMISLKPEDSAVYYCAARVRYVNPKYYYWGHGTQVTVSS” here?
A: high polyreactivity

Q: With “QVQLVESGGGLVQAGGSLRLSCAASGYIFAYYAMGWYRQAPGKERELVATIRSGGSTNYADSVKGRFTISRDNAKNTGYLQMNILKPEDTAVYYCARDDATACDYWGQGSQVTVSS” as the sequence, how does the “polyreactivity (PSR sort gate)” value read?
A: low polyreactivity

Q: For “QVQLVESGGGLVQAGGSLRLSCAASGLTFSVYAMGWYRQAPGKDRELVAAISGSGGSTYYADSVKGRFTISRDNAKNTVYLQMNSLKPEDTAVYYCAADGRYFRAVFRLYDYWGQGTQVTVSS”, which “polyreactivity (PSR sort gate)” value is on record?
A: low polyreactivity

Q: For “QVQLVESGGGLVQAGGSLRLSCAASGRILASYAMGWYRQAPGKERELVAAIRYRGSTSYADSVKGRFTISRDNANNTVYLQMNSLKPEDTAVYYCNAGLEYYYWGYTWEFDYWGQGTQVTVSS”, which “polyreactivity (PSR sort gate)” value is on record?
A: low polyreactivity

Q: For “QVQLVESGAGLVQAGGSLRLTCAPSGSIFNIYSMGWYRQAPGKDRELVATITGIADSTYYADSVKGRFTISRDNANNTVYLQMNILKPEDTAFYYCAADIYVAEYDYWGQGTQVTVSS”, which “polyreactivity (PSR sort gate)” value is on record?
A: low polyreactivity

Q: With “QVQLVESGGGLVQAGGSLRLSCAASGFTLGSYVMGWSRQAPGKERELVARITWSGGSTYYADSVKGRFTISRDNAKNTVYLQMNSLKPEDTAVYYCNTGYWARLAYWPFNYKWDDYWGQGTQVTVSS” as the sequence, how does the “polyreactivity (PSR sort gate)” value read?
A: high polyreactivity

Q: Which “polyreactivity (PSR sort gate)” value does the source give for “QVQLVESGGGLVQAGGSLRISCAASGIIFKGYAMGWYRQAPGKERELVAAISHNADSTYADSVKGRFTISRDNAKNTVYLQMNSLNPEDTAVYYCNADTPLRSDYWGQGTQVTVSS” here?
A: low polyreactivity

Q: With “QVQLVESGGGLVQAGGSLRLSCAASGYTFSVNALGWYRQAPGKERELVATINSSGGGTYYADSVKGRFTISRDNAKYTVYLQMNSLKPEDTAVFYCAADGYWYGDIYPSDYRWYDYWGQGTQVTVSS” as the sequence, how does the “polyreactivity (PSR sort gate)” value read?
A: low polyreactivity

Q: For “QVQLVESGGGLVQAGGSLRLSCAASGRIFDLYTMGWYRQAPGKERELVAAIRWSDGSTYYADSVKGRFTISRDNAKNTDYLQMNSLKPEDTAVYYCAADSRTSYYNDDYDYWGQGTQVTVSS”, which “polyreactivity (PSR sort gate)” value is on record?
A: low polyreactivity

Q: With “QVQLVESGGGLVQAGGSLSISCAASGRTFYAYAMGWYRQAPGTERELVASIDKSGGSTYYADSVKGRFTISRRIRRYRLFTDEQPETGRYRCLLLRCWCVVLSDFQFWGDFDYDYWGQGTQVTVSS” as the sequence, how does the “polyreactivity (PSR sort gate)” value read?
A: low polyreactivity

Q: Which “polyreactivity (PSR sort gate)” value does the source give for “QVQHVESGGGLVQAGGSLRLSCAASGNIFVAYAMGGYRQAPGKERELVAAITSGGRTYADSVKGRFTISRDNAKNTVYLQMNSLKPEDTAVYYCNADPYYVYLGYYDRYYSGYGYWGQGTQVTVSS” here?
A: low polyreactivity

Q: With “QVQLVESGGGLVQAGGSLRLSCAAYGLTFLSNAMGWYRPAPGKEREFVAAITKSGGRTYYADSVKGRFTISRDNAKNTVYFQMNSLKPEDTSVYYCAASGTSPRSTWYNSWGQGTQVTVSS” as the sequence, how does the “polyreactivity (PSR sort gate)” value read?
A: high polyreactivity

Q: For “QVQLVESGGGLVQAGGSLRLSSAASGRIFAVNAMGRYRQAPGKERELVASIRWSGGSTNYADSVKGRFTISRDNAKNTVYLQMNSLKPEDTAVYFCAAVIYLWGQGTQVTVSS”, which “polyreactivity (PSR sort gate)” value is on record?
A: high polyreactivity

Q: With “QVQLVESGGGLVQAGGSLRLSCAASGRTFHSNAMGWYRQAPGKERELFAAISYSGGSTYYADSVKGRFTISRDNAKNTVYLQMNSLKPEDTAVYYCNAGAVHKKPARDYWGQGTKVTVSS” as the sequence, how does the “polyreactivity (PSR sort gate)” value read?
A: low polyreactivity

Q: For “QVQLVESGGGLVQAGGSLRLSCAASGITFPRYAMGGYRPAPGKERELVATITRTGRTNYADSVKGRFTISRDNAKNTVYLQKNSLKPEDTPVYYCAARNRRERKGKMDYWGQGTQVTVSS”, which “polyreactivity (PSR sort gate)” value is on record?
A: high polyreactivity

Q: With “QVQLVESGGGLVQAGGSLRLSCAASGRIFYGYTMGWYIQAPGKERELVAAISKHAGSTYYSDSVKGRFTISRDNAKNTVYLQMNSLKPEDTAVYYCAKDSSVQAYYGYWYTSTDDYWGQGTQVTVSS” as the sequence, how does the “polyreactivity (PSR sort gate)” value read?
A: low polyreactivity
